EC50 scores of FGF ligands in cell proliferation of FDCPR3 and EC50 data for seven substances are collected here from US20130225493A1.

One may read the EC50 as the concentration needed to bring the measured effect to its halfway point. Low readings indicate a more potent agent, high ones a less potent agent.

For experiment [1], the target named is FGFR3-IIIc stably expressed on FDCP cells (UniProt P22607). Put plainly: cell-based or functional assay.
Experiment [2] concerns the target FGFR1 extracellular domain, immobilized (R1-Fc) (UniProt P11362). Put plainly: functional ELISA on immobilized FGFR. (ELISA stands for enzyme-linked immunosorbent assay.)
Experiment [3] has as its target FGFR2 extracellular domain, immobilized (R2-Fc) (UniProt P21802). As to the kind of experiment: functional ELISA on immobilized FGFR.
Experiment [4] has as its target FGFR3 extracellular domain, immobilized (R3-Fc) (UniProt P22607). Put plainly: functional ELISA on immobilized FGFR.
Experiment [5] concerns the target FGFR1 extracellular domain, immobilized (R1-Fc) (UniProt P11362). As to the kind of experiment: ELISA: biotinylated ligand on immobilized FGFR-Fc, HRP-streptavidin.
Experiment [6] concerns the target FGFR2 extracellular domain, immobilized (R2-Fc) (UniProt P21802). The description is as above.
Experiment [7] has as its target FGFR3 extracellular domain, immobilized (R3-Fc) (UniProt P22607). The experiment is described as above.

Sequence of FGF-18^Δ31 (O76093 other isoform, or with tags, fused parts or gaps mutant limits assumed): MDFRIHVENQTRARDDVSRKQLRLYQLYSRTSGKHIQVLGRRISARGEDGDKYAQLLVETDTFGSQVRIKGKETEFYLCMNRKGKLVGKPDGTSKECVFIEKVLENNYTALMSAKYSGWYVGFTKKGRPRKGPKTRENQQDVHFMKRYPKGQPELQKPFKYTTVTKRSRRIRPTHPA
Sequence of FGF-18 (recombinant wild type, mature form without the signal peptide) (O76093 other isoform, or with tags, fused parts or gaps): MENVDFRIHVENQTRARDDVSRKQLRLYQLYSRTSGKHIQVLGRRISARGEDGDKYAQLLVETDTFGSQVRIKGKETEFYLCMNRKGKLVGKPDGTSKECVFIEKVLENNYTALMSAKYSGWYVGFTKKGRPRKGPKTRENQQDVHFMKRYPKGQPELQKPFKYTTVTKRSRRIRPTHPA
Sequence of FGF-18^Δ51 (O76093 other isoform, or with tags, fused parts or gaps mutant limits assumed): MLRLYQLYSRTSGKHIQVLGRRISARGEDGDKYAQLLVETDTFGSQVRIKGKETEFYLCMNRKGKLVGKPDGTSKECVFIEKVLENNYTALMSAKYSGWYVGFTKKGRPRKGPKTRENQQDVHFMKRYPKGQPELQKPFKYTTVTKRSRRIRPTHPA
Sequence of FGF-18^Δ37 (O76093 other isoform, or with tags, fused parts or gaps mutant limits assumed): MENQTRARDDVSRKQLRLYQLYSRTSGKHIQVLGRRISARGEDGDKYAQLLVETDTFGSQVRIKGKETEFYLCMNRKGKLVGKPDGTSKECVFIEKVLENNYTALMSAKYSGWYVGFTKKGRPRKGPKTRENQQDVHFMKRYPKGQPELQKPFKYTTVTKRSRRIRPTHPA
Sequence of FGF-18^Δ33 (O76093 other isoform, or with tags, fused parts or gaps mutant limits assumed): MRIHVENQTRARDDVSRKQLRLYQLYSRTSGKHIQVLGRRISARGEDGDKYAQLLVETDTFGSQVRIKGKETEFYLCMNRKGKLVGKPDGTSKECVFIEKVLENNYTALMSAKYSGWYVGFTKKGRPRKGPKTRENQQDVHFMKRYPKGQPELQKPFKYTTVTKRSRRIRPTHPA
Sequence of FGF-18^Δ45 (O76093 other isoform, or with tags, fused parts or gaps mutant limits assumed): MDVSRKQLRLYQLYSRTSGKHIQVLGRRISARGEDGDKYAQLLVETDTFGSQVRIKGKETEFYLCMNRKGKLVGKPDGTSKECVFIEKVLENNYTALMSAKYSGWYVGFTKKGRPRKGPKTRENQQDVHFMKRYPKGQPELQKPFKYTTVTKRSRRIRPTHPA
Sequence of FGFR3-IIIc stably expressed on FDCP cells (P22607 23-806): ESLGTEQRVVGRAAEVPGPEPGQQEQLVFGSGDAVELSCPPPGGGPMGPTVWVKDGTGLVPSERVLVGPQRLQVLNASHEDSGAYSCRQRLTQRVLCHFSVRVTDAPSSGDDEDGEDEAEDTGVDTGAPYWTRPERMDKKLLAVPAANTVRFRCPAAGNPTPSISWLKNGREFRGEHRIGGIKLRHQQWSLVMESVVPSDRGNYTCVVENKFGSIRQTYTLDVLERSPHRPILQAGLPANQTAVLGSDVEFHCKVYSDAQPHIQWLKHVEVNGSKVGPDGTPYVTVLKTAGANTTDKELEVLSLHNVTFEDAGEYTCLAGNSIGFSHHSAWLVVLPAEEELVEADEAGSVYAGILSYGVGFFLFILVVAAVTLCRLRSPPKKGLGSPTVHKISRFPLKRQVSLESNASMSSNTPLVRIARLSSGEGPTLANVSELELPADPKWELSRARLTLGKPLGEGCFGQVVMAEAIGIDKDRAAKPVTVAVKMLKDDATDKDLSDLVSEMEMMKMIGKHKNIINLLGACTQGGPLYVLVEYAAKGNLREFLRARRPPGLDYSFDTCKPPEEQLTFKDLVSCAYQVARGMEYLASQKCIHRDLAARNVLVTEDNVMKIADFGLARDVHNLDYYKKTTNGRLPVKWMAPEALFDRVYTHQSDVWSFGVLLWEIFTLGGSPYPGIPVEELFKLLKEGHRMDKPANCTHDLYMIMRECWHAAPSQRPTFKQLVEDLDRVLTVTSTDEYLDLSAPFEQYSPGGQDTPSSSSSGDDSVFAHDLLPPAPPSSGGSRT

With “FGF-2 wild type (from UniProt P09038 134-288) (ligand)”, the EC50 scores of FGF ligands in cell proliferation of FDCPR3 in experiment [1] is 1.19 ng/mL.
Take “FGF-18 (recombinant wild type, mature form without the signal peptide) (from UniProt O76093 29-207) (ligand)”: the EC50 in experiment [2] is 22.8 ng/mL; in experiment [3], 8.76 ng/mL; in experiment [4], 6.59 ng/mL; in experiment [5], 28.2 ng/mL; in experiment [6] it was 9.51 ng/mL; in experiment [7], 5.04 ng/mL.
In the case of “FGF-18^Δ31 (from UniProt O76093 32-207) (ligand)”, the figures for the EC50 in experiment [2], in experiment [3] and in experiment [4] were 24.4 ng/mL, 11.2 ng/mL and 8.55 ng/mL, respectively.
In experiment [4], “FGF-18^Δ33 (from UniProt O76093 34-207) (ligand)” gave an EC50 of 8.27 ng/mL.
Turning to “FGF-18^Δ37 (from UniProt O76093 38-207) (ligand)”, the EC50 in experiment [4] was found to be 9.75 ng/mL; in experiment [7], 5.94 ng/mL.
Consider “FGF-18^Δ45 (from UniProt O76093 46-207) (ligand)”, for which the EC50 in experiment [7] amounted to 9.16 ng/mL.
As to “FGF-18^Δ51 (from UniProt O76093 52-207) (ligand)”, the EC50 in experiment [2] stood at 41.9 ng/mL; in experiment [3], 43.5 ng/mL; in experiment [4] it was 9.99 ng/mL; in experiment [7], 10.2 ng/mL.
